Laboratory results as given in patent US7658917 (PRAECIS PHARMACEUTICALS, dated 2010).
Numbered stars: 1 amine (or outer) side, 2 acyl side, 3 side chain; on linkers, the order of the positions; unused ones are H or OH. Square brackets hold non-standard residues; d marks the D form. Primed or numbered codes have the meaning given here. * marks the point of attachment. Aic′ = 3-(O-aminoethyl-iso)-cholyl, C[C@H](CCC(=O)*)[C@H]1CC[C@H]2[C@@H]3[C@H](O)C[C@@H]4C[C@@H](OCCN)CC[C@]4(C)[C@H]3C[C@H](O)[C@]12C; Cholyl = C[C@H](CCC(=O)*)[C@H]1CC[C@H]2[C@@H]3[C@H](O)C[C@@H]4C[C@H](O)CC[C@]4(C)[C@H]3C[C@H](O)[C@]12C; Adp = aminoethyldibenzofuranylpropanoic acid, O=C(CCc1cccc2c1oc1c(CCN[*:1])cccc12)[*:2]; Tyr(3-I) = N[C@@H](Cc1ccc(O)c(I)c1)C(=O)O; Aic″ = 3-(O-aminoethyl-iso)-cholyl; NANA = N-acetyl neuraminyl; βAla = NCCC(=O)O

B1: CA-FFA-oh (peptide)
peptide: Cholyl-Phe-Phe-Ala-OH
SMILES: C[C@H](NC(=O)[C@H](Cc1ccccc1)NC(=O)[C@H](Cc1ccccc1)NC(=O)CC[C@@H](C)[C@H]1CC[C@H]2[C@@H]3[C@H](O)C[C@@H]4C[C@H](O)CC[C@]4(C)[C@H]3C[C@H](O)[C@]12C)C(=O)O
B2: CA-KLVFF(βA)-oh (peptide)
peptide: Cholyl-KLVFF[βAla]-OH
SMILES: CC(C)C[C@H](NC(=O)[C@H](CCCCN)NC(=O)CC[C@@H](C)[C@H]1CC[C@H]2[C@@H]3[C@H](O)C[C@@H]4C[C@H](O)CC[C@]4(C)[C@H]3C[C@H](O)[C@]12C)C(=O)N[C@H](C(=O)N[C@@H](Cc1ccccc1)C(=O)N[C@@H](Cc1ccccc1)C(=O)NCCC(=O)O)C(C)C
B3: CA-LVFFK-oh (peptide)
peptide: Cholyl-LVFFK-OH
SMILES: CC(C)C[C@H](NC(=O)CC[C@@H](C)[C@H]1CC[C@H]2[C@@H]3[C@H](O)C[C@@H]4C[C@H](O)CC[C@]4(C)[C@H]3C[C@H](O)[C@]12C)C(=O)N[C@H](C(=O)N[C@@H](Cc1ccccc1)C(=O)N[C@@H](Cc1ccccc1)C(=O)N[C@@H](CCCCN)C(=O)O)C(C)C
B4: h-DDIIL-(Adp)-VFF-oh (peptide)
peptide: H-DDIIL[Adp]VFF-OH
SMILES: CC[C@H](C)[C@H](NC(=O)[C@H](CC(=O)O)NC(=O)[C@@H](N)CC(=O)O)C(=O)N[C@H](C(=O)N[C@@H](CC(C)C)C(=O)NCCc1cccc2c1oc1c(CCC(=O)N[C@H](C(=O)N[C@@H](Cc3ccccc3)C(=O)N[C@@H](Cc3ccccc3)C(=O)O)C(C)C)cccc12)[C@@H](C)CC
B5: CA-LVAFA-oh (peptide)
peptide: Cholyl-LVAFA-OH
SMILES: CC(C)C[C@H](NC(=O)CC[C@@H](C)[C@H]1CC[C@H]2[C@@H]3[C@H](O)C[C@@H]4C[C@H](O)CC[C@]4(C)[C@H]3C[C@H](O)[C@]12C)C(=O)N[C@H](C(=O)N[C@@H](C)C(=O)N[C@@H](Cc1ccccc1)C(=O)N[C@@H](C)C(=O)O)C(C)C
B6: h-(Aic)-LVFFA-oh (peptide)
peptide: H-[Aic′]LVFFA-OH
SMILES: CC(C)C[C@H](NC(=O)CC[C@@H](C)[C@H]1CC[C@H]2[C@@H]3[C@H](O)C[C@@H]4C[C@@H](OCCN)CC[C@]4(C)[C@H]3C[C@H](O)[C@]12C)C(=O)N[C@H](C(=O)N[C@@H](Cc1ccccc1)C(=O)N[C@@H](Cc1ccccc1)C(=O)N[C@@H](C)C(=O)O)C(C)C
B7: CA-AVFFA-oh (peptide)
peptide: Cholyl-AVFFA-OH
SMILES: CC(C)[C@H](NC(=O)[C@H](C)NC(=O)CC[C@@H](C)[C@H]1CC[C@H]2[C@@H]3[C@H](O)C[C@@H]4C[C@H](O)CC[C@]4(C)[C@H]3C[C@H](O)[C@]12C)C(=O)N[C@@H](Cc1ccccc1)C(=O)N[C@@H](Cc1ccccc1)C(=O)N[C@@H](C)C(=O)O
B8: CA-VFFA-oh (peptide)
peptide: Cholyl-VFFA-OH
SMILES: CC(C)[C@H](NC(=O)CC[C@@H](C)[C@H]1CC[C@H]2[C@@H]3[C@H](O)C[C@@H]4C[C@H](O)CC[C@]4(C)[C@H]3C[C@H](O)[C@]12C)C(=O)N[C@@H](Cc1ccccc1)C(=O)N[C@@H](Cc1ccccc1)C(=O)N[C@@H](C)C(=O)O
B9: CA-VFF-oh (peptide)
peptide: Cholyl-Val-Phe-Phe-OH
SMILES: CC(C)[C@H](NC(=O)CC[C@@H](C)[C@H]1CC[C@H]2[C@@H]3[C@H](O)C[C@@H]4C[C@H](O)CC[C@]4(C)[C@H]3C[C@H](O)[C@]12C)C(=O)N[C@@H](Cc1ccccc1)C(=O)N[C@@H](Cc1ccccc1)C(=O)O
B10: CA-FFVLA-oh (peptide)
peptide: Cholyl-FFVLA-OH
SMILES: CC(C)C[C@H](NC(=O)[C@@H](NC(=O)[C@H](Cc1ccccc1)NC(=O)[C@H](Cc1ccccc1)NC(=O)CC[C@@H](C)[C@H]1CC[C@H]2[C@@H]3[C@H](O)C[C@@H]4C[C@H](O)CC[C@]4(C)[C@H]3C[C@H](O)[C@]12C)C(C)C)C(=O)N[C@@H](C)C(=O)O
B11: CA-LAFFA-oh (peptide)
peptide: Cholyl-LAFFA-OH
SMILES: CC(C)C[C@H](NC(=O)CC[C@@H](C)[C@H]1CC[C@H]2[C@@H]3[C@H](O)C[C@@H]4C[C@H](O)CC[C@]4(C)[C@H]3C[C@H](O)[C@]12C)C(=O)N[C@@H](C)C(=O)N[C@@H](Cc1ccccc1)C(=O)N[C@@H](Cc1ccccc1)C(=O)N[C@@H](C)C(=O)O
B12: CA-LVF-oh (peptide)
peptide: Cholyl-Leu-Val-Phe-OH
SMILES: CC(C)C[C@H](NC(=O)CC[C@@H](C)[C@H]1CC[C@H]2[C@@H]3[C@H](O)C[C@@H]4C[C@H](O)CC[C@]4(C)[C@H]3C[C@H](O)[C@]12C)C(=O)N[C@H](C(=O)N[C@@H](Cc1ccccc1)C(=O)O)C(C)C
B13: CA-LVFFAE-oh (peptide)
peptide: Cholyl-LVFFAE-OH
SMILES: CC(C)C[C@H](NC(=O)CC[C@@H](C)[C@H]1CC[C@H]2[C@@H]3[C@H](O)C[C@@H]4C[C@H](O)CC[C@]4(C)[C@H]3C[C@H](O)[C@]12C)C(=O)N[C@H](C(=O)N[C@@H](Cc1ccccc1)C(=O)N[C@@H](Cc1ccccc1)C(=O)N[C@@H](C)C(=O)N[C@@H](CCC(=O)O)C(=O)O)C(C)C
B14: CA-FKFVL-oh (peptide)
peptide: Cholyl-FKFVL-OH
SMILES: CC(C)C[C@H](NC(=O)[C@@H](NC(=O)[C@H](Cc1ccccc1)NC(=O)[C@H](CCCCN)NC(=O)[C@H](Cc1ccccc1)NC(=O)CC[C@@H](C)[C@H]1CC[C@H]2[C@@H]3[C@H](O)C[C@@H]4C[C@H](O)CC[C@]4(C)[C@H]3C[C@H](O)[C@]12C)C(C)C)C(=O)O
B15: CA-KTVFF-oh (peptide)
peptide: Cholyl-KTVFF-OH
SMILES: CC(C)[C@H](NC(=O)[C@@H](NC(=O)[C@H](CCCCN)NC(=O)CC[C@@H](C)[C@H]1CC[C@H]2[C@@H]3[C@H](O)C[C@@H]4C[C@H](O)CC[C@]4(C)[C@H]3C[C@H](O)[C@]12C)[C@@H](C)O)C(=O)N[C@@H](Cc1ccccc1)C(=O)N[C@@H](Cc1ccccc1)C(=O)O

Each binder was assayed against natural β-amyloid peptide β-AP1-40 (human) (assay: cell-based or functional assay).
natural β-amyloid peptide β-AP1-40 (human), sequence (peptide, as listed by the source): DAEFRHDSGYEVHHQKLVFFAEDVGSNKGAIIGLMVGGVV

In order of falling “% Iext'n; seeded extension assay; 25 mole %” value:
1. Cholyl-LVFFA-NH2 [CA-LVFFA-nh2]  91%
2. B10  89%
3. B6  87%
4. B3  85%
5. B2  80%
6. Cholyl-LV[Tyr(3-I)]FA-OH [CA-LV(IY)FA-oh]  71%
7. H-LVFFA-NH2 [h-LVFFA-nh2]  70%
8. B11  66%
9. Cholyl-LVFF-OH [CA-LVFF-oh]  51%
10. B7  44%
11. H-KLVFF-NH2 [h-KLVFF-nh2]  39%
12. B14  37%
13. B15  21%
14. B13  16%
15. H-LVFFA-OH [h-LVFFA-oh]  11%
16. B8  10%
17. {NANA}-KLVFF-OH [NANA-KLVFF-oh]  8%
18. B1  6%
19. H-LVFFA[Aic″]-OH [h-LVFFA-(Aic)-oh]  3%
20. Cholyl-LVFFA-OMe [CA-LVFFA-o-methyl]  0%
21. B4  0%
22. B5  0%
23. B9  0%
24. B12  0%

In order of falling “% Inucl'n; nucleation assay; 100 mole %” value:
1. B10  100%
2. Cholyl-LV[Tyr(3-I)]FA-OH [CA-LV(IY)FA-oh]  100%
3. B2  76%
4. B8  76%
5. B7  68%
6. B9  55%
7. B13  55%
8. B1  51%
9. B11  47%
10. H-LVFFA[Aic″]-OH [h-LVFFA-(Aic)-oh]  46%
11. B14  45%
12. B5  25%
13. B15  18%
14. {NANA}-KLVFF-OH [NANA-KLVFF-oh]  16%
15. H-LVFFA-OH [h-LVFFA-oh]  15%
16. B4  14%
17. H-LVFFA-NH2 [h-LVFFA-nh2]  11%
18. B12  1%
19. H-KLVFF-NH2 [h-KLVFF-nh2]  -9%
20. {NANA}-HQKLVFF-NH2 [NANA-HQKLVFF-nh2]  -15%
21. Cholyl-LVFFA-NH2 [CA-LVFFA-nh2]  -200%

Compared with B1, B2 is higher in “ΔLag; nucleation assay; 100 mole %” value: 1 ratio for the first, 2.5 ratio for the second.

Going from {NANA}-HQKLVFF-NH2 [NANA-HQKLVFF-nh2] to Cholyl-LVFFA-NH2 [CA-LVFFA-nh2], the “ΔLag; nucleation assay; 100 mole %” value falls from 1.5 ratio to 1 ratio.

Compared with B4, B5 is higher in “ΔLag; nucleation assay; 100 mole %” value: 0.4 ratio for the first, 2.7 ratio for the second.

Compared with H-LVFFA-OH [h-LVFFA-oh], B7 is higher in “ΔLag; nucleation assay; 100 mole %” value: 1 ratio for the first, 1.4 ratio for the second.

Compared with H-LVFFA[Aic″]-OH [h-LVFFA-(Aic)-oh], B8 is lower in “ΔLag; nucleation assay; 100 mole %” value: 3.5 ratio for the first, 2 ratio for the second.

Going from B9 to B10, the “ΔLag; nucleation assay; 100 mole %” value rises from 1.8 ratio to > 5 ratio.

Compared with B11, H-KLVFF-NH2 [h-KLVFF-nh2] is lower in “ΔLag; nucleation assay; 100 mole %” value: 1.5 ratio for the first, 1.3 ratio for the second.

Going from B12 to B13, the “ΔLag; nucleation assay; 100 mole %” value rises from 1.3 ratio to 1.4 ratio.

Going from Cholyl-LV[Tyr(3-I)]FA-OH [CA-LV(IY)FA-oh] to B14, the “ΔLag; nucleation assay; 100 mole %” value falls from > 5 ratio to 0.8 ratio.

Compared with H-LVFFA-NH2 [h-LVFFA-nh2], {NANA}-KLVFF-OH [NANA-KLVFF-oh] is lower in “ΔLag; nucleation assay; 100 mole %” value: 1.3 ratio for the first, 0.9 ratio for the second.

With B15 the “ΔLag; nucleation assay; 100 mole %” value was 1.2 ratio.

In order of falling “% Inucl'n; nucleation assay; 33 mole %” value:
1. B3  100%
2. B6  100%
3. Cholyl-LVFF-OH [CA-LVFF-oh]  72%
4. Cholyl-HQKLVFF-NH2 [CA-HQKLVFF-nh2]  5%

Compared with B3, Cholyl-LVFF-OH [CA-LVFF-oh] is lower in “ΔLag; nucleation assay; 33 mole %” value: > 5 ratio for the first, 1.8 ratio for the second.

First: B6
Second: Cholyl-HQKLVFF-NH2 [CA-HQKLVFF-nh2]
The “ΔLag; nucleation assay; 33 mole %” value of the first is higher: > 5 ratio for the first, 1.1 ratio for the second.
